{"source": "patent US7045617", "about": "(MOUNT SINAI SCHOOL OF MEDICINE, dated 2006)", "key": {"[1]": {"target": "protein tyrosine kinase Csk (UniProt P41240 1-450, limits assumed)", "sequence (P41240 whole entry)": "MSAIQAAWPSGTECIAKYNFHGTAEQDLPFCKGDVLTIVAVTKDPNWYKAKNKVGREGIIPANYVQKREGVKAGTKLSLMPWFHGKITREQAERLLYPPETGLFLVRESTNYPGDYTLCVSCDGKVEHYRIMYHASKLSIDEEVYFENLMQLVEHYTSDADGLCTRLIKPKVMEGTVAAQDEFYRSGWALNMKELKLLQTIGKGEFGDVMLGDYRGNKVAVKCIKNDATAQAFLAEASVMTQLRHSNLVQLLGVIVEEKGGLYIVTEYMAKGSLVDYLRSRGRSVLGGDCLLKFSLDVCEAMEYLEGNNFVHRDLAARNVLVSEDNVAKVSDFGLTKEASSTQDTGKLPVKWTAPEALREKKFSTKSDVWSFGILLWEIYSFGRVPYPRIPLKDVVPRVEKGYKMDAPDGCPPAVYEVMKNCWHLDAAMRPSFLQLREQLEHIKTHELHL", "assay": "Csk kinase inhibition assay"}, "[2]": {"target": "T1, recombinant mouse protein kinase A (catalytic subunit) (mouse, UniProt P05132 2-351)", "assay": "PKA radiometric kinase assay with biotinylated kemptide, Dixon plot, versus ATP", "protocol": "(§1) Reagents from Calbiochem's Protein Kinase A kit were used to perform the inhibition assays and recombinant mouse PKA (catalytic subunit) was also purchased from Calbiochem (enzyme concentration was established by Bradford analysis). […] These were further diluted into water to produce a range of inhibitor solutions between 51 μM and 507 nM. An 11.25 μL aliquot from each of these solutions was pre-incubated with 7.5 μL of a 1.75 nM PKA enzyme solution (750 ug/uL bovine serum albumin) for 10 minutes at 30° C. after which 12.5 μL of pre-incubation mix was added to 12.5 μL of reaction mix (30 μM cold ATP, 50 μM biotinylated kemptide substrate, 0.04 uCi/μL γP-32 ATP, 80 mM Tris-HCl, 10 mM MgCl_2, pH 7.5) to initiate the enzymatic reaction. […] The columns were placed in scintillation vials and radioactivity was measured using a scintillation counter."}, "[3]": {"target": "T1, recombinant mouse protein kinase A …", "assay": "PKA radiometric kinase assay, Dixon plot, adjusted to zero substrate", "protocol": "as §1"}}, "note": "Side-chain parts run from the residue outwards. [ ]: non-standard residue; d: D form. Phe(4-NH2) = Nc1ccc(C[C@H](N)C(=O)O)cc1; Dap = NC[C@H](N)C(=O)O"}
{"binder": "Ac-KKKLPATGD[Phe(4-NH2)]([Ac-ATPγS])MNMSPVGD-OH (also called bisubstrate analog 2)", "note": "[Compound 2 (peptide-ATP bisubstrate analog; IRS727 peptide linked to ATPγS through an acetyl linker)]", "values": [{"measurement": "Ki", "setting": "[1]", "result": "~40", "unit": "µM"}]}
{"binder": "Ac-LRRA[Dap]([Ac-ATPγS])LG-OH", "note": "[kemptide-ATPγS conjugate]", "values": [{"measurement": "Ki", "setting": "[2]", "result": 9.56, "unit": "µM"}, {"measurement": "Ki", "setting": "[3]", "result": 4.6, "unit": "µM"}]}
